In the experiment the target is Myc tagged Cdc42HsV12 (constitutively active, expressed in microinjected cells) (UniProt P60953). Nature of the experiment: cell-based or functional assay.

Some results are limits rather than exact numbers.

Sequence of Myc tagged Cdc42HsV12 (constitutively active, expressed in microinjected cells) (P60953 other isoform, or with tags, fused parts or gaps): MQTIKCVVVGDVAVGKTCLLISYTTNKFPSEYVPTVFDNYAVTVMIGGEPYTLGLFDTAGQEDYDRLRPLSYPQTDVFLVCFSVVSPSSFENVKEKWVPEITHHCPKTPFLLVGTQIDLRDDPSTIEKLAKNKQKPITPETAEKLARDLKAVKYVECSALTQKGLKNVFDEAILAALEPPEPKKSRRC

The substance “HA tagged PAK4 (wild type, expressed in cells from the SRalpha vector) (from UniProt O96013 1-591)” yielded a sustained formation of actin enriched filopodia protrusions in co-injected PAE cells (% of the injected cells) of more than 70.

Source of the values: US20040091992A1.
